Source: patent US20130177660A1 (NATIONAL UNIVERSITY CORPORATION NAGOYA UNIVERSITY, published 2013)

Biological target: T1, Flag-RFP (Flag-tagged RET finger protein) (Homo sapiens, UniProt P14373 1-513)
T1 construct: Expressed by transient transfection in HEK293 cells and tested in cell lysates by co-immunoprecipitation; also called TRIM27; pFlag-RFP; not shown: Flag tag from the pFlag vector
T1 sequence: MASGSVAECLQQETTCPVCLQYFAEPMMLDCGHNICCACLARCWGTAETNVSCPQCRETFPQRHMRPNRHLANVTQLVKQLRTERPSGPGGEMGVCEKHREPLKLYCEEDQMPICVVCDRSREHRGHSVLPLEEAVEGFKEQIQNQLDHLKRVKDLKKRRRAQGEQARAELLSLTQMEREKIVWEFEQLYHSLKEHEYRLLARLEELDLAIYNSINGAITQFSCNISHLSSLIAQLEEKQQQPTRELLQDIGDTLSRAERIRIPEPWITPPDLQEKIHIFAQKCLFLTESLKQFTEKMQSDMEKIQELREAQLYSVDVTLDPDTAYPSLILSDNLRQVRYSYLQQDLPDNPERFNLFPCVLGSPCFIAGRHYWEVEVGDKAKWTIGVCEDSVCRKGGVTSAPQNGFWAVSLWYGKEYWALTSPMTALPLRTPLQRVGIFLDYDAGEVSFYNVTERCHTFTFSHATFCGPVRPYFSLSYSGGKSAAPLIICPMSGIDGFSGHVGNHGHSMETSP
Assay: co-IP from HEK293 cells co-transfected with GFP-RFP and Flag-RFP; anti-Flag IP, anti-GFP blot
Source text: FIG. 7 RFP Oligomerization (a) RFP forms homo-oligomer, HEK293 cells were co-transfected with GFP-RFP and Flag-RFP, and immunoprecipitated with anti-Flag antibody followed by immunoblotting with anti-Flag and anti-GFP antibodies. Anti-HA antibody was used as mock. WCL: whole cell lysates. (b) Ring-B-box and Coiled-coil domains, but not Rfp domain, of RFP were required for its oligomerization. HEK293 cells were co-transfected with GFP-RFP and Flag tagged RFP deletion constructs, and immunoprecipitated with anti-Flag antibody. The pFlag vector was used as control. Arrow heads indicate Flag-tagged RFP constructs.

binding result: binds
B1: GFP-RFP (other)
chain: T1 sequence
notes: RFP cDNA inserted into the pEGFP-C1 vector; also called RFP in pEGFP-C1; not shown: GFP (EGFP of the pEGFP-C1 vector) and linker
